# Test results taken from patent US10975360B2, “Process for the modification of alkanes, fatty acids and fatty alcohols” (priority 2016, dated 2021).
# Key:
# [1] = type: cell-based, P. pastoris
# Procedure: (§1) Precultures of P. pastoris transformants were prepared in buffered complex glycerol media (BMGY). BMGY contained: 10 g/l yeast extract, 20 g/l peptone, 3.4 g/l yeast nitrogen base, 10 g/l ammonium sulfate, 100 mM potassium phosphate (pH 6), 0.4 mg/l biotin and 1% (v/v) glycerol. Erlenmeyer flasks (500 ml) containing 50 ml BMGY media were inoculated with single colonies of 24 h old YPD-agar cultures of P. pastoris KM71 mut^s3/CYP505E3 and incubated at 30° C. and 225 rpm for 24 h. The cultures were harvested using pre-weighed centrifuge tubes at 3000 g for 5 min and stored on ice until further use.
# (§2) The main cultures for expression were prepared in buffered complex methanol media (BMMY) containing 10 g/l yeast extract, 20 g/l peptone, 3.4 g/l yeast nitrogen base, 10 g/l ammonium sulfate, 100 mM potassium phosphate (pH 6), 0.4 mg/l biotin and 0.5 or 1% (v/v) methanol. Harvested cells from precultures were resuspended in BMMY media to final concentration of 1 g WC per 40 ml (appx. 25 g/l). The resuspended cultures (100 ml) were transferred to 500 ml Erlenmeyer flasks and incubated at 25° C. and 225 rpm for 24 h. The cultures were then harvested at 3000 g for 5 min using pre-weighed centrifuge tubes.
# (§3) Different transformants of Pichia pastoris KM71 harbouring the CYP505 genes for SEQ ID Nos 1 to 7 and 9 to 12 were grown and harvested as described above. The harvested cells were resuspended to give 1 g wet cell weight in 40 ml MOPS buffer (200 mM, 100 mM glucose, 100 mM glycerol, pH 8) and 1 ml aliquots of these cell suspensions were transferred to 40 ml amber vials. Dodecane, 1-dodecanol and 1-tetradecanol were added neat to these cell suspensions to give final concentrations of 200 mM in the case of the alcohols and 1 M in the case of dodecane while in the case of dodecanoic acid 20 μl of a 500 mM stock solution (in DMSO) was added to give a final concentration of 10 mM. Transformants harbouring the CYP505 genes for SEQ ID Nos 1 to 4 were tested for the biotransformation of 1-dodecanol, 1-tetradecanol, dodecanoic acid, tetradecanoic acid and dodecane, while those harbouring the CYP505 genes for SEQ ID Nos 5 to 7 and 9 to 12 were only tested for the biotransformation of 1-dodecanol and dodecanoic acid. The biotransformations were incubated at 25° C. and 225 rpm for 24 h. Extractions were performed using ethyl acetate (500 μl×2). The extracts were analyzed using GC/MS.
# [2] = Whole cell biotransformation of dodecane by CYP505s expressed in P. pastoris; type: cell-based; settings: whole cells of P. pastoris; for products produced from dodecane (GC-MS): 1 M dodecane, 24 h; for ω-7 hydroxylase activity C12alk: C12 alkane, GC-MS peak height
# Procedure: as §1, §2, §3
Molecule,products produced from tetradecanoic acid (GC-MS) [1],ω-7 hydroxylase activity C14o [1],products produced from dodecane (GC-MS) [2],ω-7 hydroxylase activity C12alk [2]
"CYP505Pe: CYP505 cytochrome P450 monooxygenase from Penicillium expansum, SEQ ID No 4 (protein, listed as Penicillium expansum) MKDMESIPGPKPLPVVGNLFDIDLENGLQSIIKMAHEFGPLFQITINGQKQIFATSQALVDELCDETRFHKAVMGGIQKLRMLAKDGLFTAYHGERGWGIAHRILMPAFGPLRIRDMFEDMSDVAQQLCFKWARQGSSTSINICDDFTRLTLDTIALCTMGFRLNSYYNSNALHPFIESMLYVLKEAELQSTLPGVANCMRVKAQRRMSKHIDAMRSMARNLIEERRAKPEPVDDLLNTLLNGRDPITGEGMSDDLIISNIITFLIAGHETTSGLLSFTFYYLLQNQDVLERARNEVDEVTGVGPITVQHLAKLPYIDAIMKESLRLMPTAPAFTVTPQKPEVLGGKWMINTGDSVNLLLPVCLRDETVFGPDAGEFRPNRMLEENFSKLPPNSWKPFGNGERGCIGRAFAWQEAQLVVALVLRTFDLAAEDPYYKLRIKETLTIKPDGFRIRATLRHGKSATALSQNNISVGAAASPASSTYLAGNENGRDAAGGQPVSFFYGSNSGTCKALTHRLASTMMTRGFTDQNIAPLDSAVDNLPRDQPTIIITTTYDGQPTDDAKKFVAWLESGNSPSLQGVSYAVFGCGHQDWTKTFYRIPILIDALMYKAGATRLATRGAANAAISDLFSDLEVWEETNLLPGLRESFNPPNNSNFVPLEPHQLQISINKPTRVGMHRDLIEAKVTAIRTLTSPGAPEKRHLEFCIPGETTLRPGDHLNILPVNPPSTVSRALARFNLAPDHSITFESSNALDLPQATPVSAAELFSSYLELSQPATRNNLKELASTTPSDGEKQELLHLYDSYDSLIRAKRASVLDLLEQFTSVTLPITTFISMLPALRVRTYSLSMAPSFKPLHYSLTFSVINEPAWNGNGRYLGVASNYLASLNLGSILYISPRPAKDAFHLPTDQSSKPIIMICAGSGLAPFRSFIQDRMLWQQQDKTLAKALLFFGCRSPQLDDLYHDELSQFEAAGVVEVRRAYSKVPNHYLAKGCRYVQHRLLTETETIQDMWAQDAIIYVCGSGNLAKGVKAVLESMLGTLSERYITEIF",only 7-hydroxy tetradecanoic acid,−,5-dodecanol,++ (++ 0.1 million < RA < 1 million)
"CYP505E1: CYP505 cytochrome P450 monooxygenase from Aspergillus niger, SEQ ID No 3 (protein, listed as Aspergillus kawachii) MKDAERIPGPKPLPVVGNLFDIDPEHSLESIVAFAEKFGPLFQITINGEKQIFATSQALVDELCDELRFHKAVVTGLEILRLLAHDGLFTAYHGERGWGIAHRILVPAFGPLRIRNMLDDMSDVAQQLCLKWARQGGSTSINITEDFTRLTLDTIALCTMGFRLNSFYNNETMHPFVQSMLYVLREADIQANLPGIANSIRVSAQRRMHKNIEAMRTMARGIIQERRKNKNPVDDILNTLLNGRDPVTGEGMSDDSIIDNVITFLIAGHETTSGLLSFTFYFLIQHPHILKKAQEEVDETVGLAQISAQHLAELPYIDAILKESLRLMPTAPGFTVTPKKTEVLGGRWMINAGQPVNVLLPACLRDQSVFGPDADEFRPERMLAENFSKLPPNSWKPFGNGERGCIGRAFAWQEAQLVVAMILQTFDLVPDDPSYQLRIKETLTIKPDGFRIRATLRRGQTATGLSRRSMLVARDGSSEESSNHPAEARGDHAPARGQPVSFFYGSNSGTCKALAHQLASNMMSRGYTTQKLAPLDNAVDNLPRDQPVIILTTTYDGQPTDNAKKFVAWLETGNVLSLQGISYAVFGCGHHDWTQTFYRIPILIDDLMYKAGATRLAPRGAANAAVSDLFSDLEAWEETSLLPALRENFLPSNSTDFDPLNPHQIQLSLSKPRRVDLHKGLIEAKVTAVRVLTSPDTPEKRHLEFCFQGDLSLRPGDHLNILPVNPPSTVSRVLAQFNLAPDYNITVNSFNTLGLPQATPVSASELFSSYVELCQPATRNNLKSLIAATQSDTVKQELNRLYDSYEFIVRDKRVSVLDLLEQFPSISLPIAAFISMLPALRVRTYSLSMAPAFKPSHSSLTFSVINEPAWRGSGQHLGVASNYLASLTSGSIFYFSPRPAKETFHLPKDPSRTPIIMICAGSGLAPFLSFIQDRMVLKQQNKPLAKAFLFFGCRGRSLDDLYHEELSEYEAAGVVEVRRAYSKTPEFDIAKGCRYVQHRLVTEGQAILSLWAQNAIIYVCGSTSMAKGAEAVLQNMLGPLPKERYVTEIF",only 7-hydroxy tetradecanoic acid,−,5-dodecanol,+ (+ − 0.01 million < RA < 0.1 million)
"CYP505Ak: CYP505 cytochrome P450 monooxygenase from Aspergillus kawachii, SEQ ID No 2 (protein, Aspergillus niger) MRDAERIPGPTPLPVVGNLFDIDLEHVLQSVIGLANKYGPLFQITINGEKQIFATSQALVDELCDESRFHKAVASGLENLRMLAHDGLFTAYHGERGWGIAHRILVPAFGPLRIQSMFDDMGDLAQQLCLKWARQGASNSINITDDFTRLTLDTIALCTMDFRLNSFYNNDTMHPFVESMLYVLREADVQSALPGIANSVRIMAHRRMLKNIEAMRTIARDIIHDRRKKENPADDLLNTLLNGRDPVTGEGMSDESIIDNVITFLVAGHETTSGLLSFTFYYLVQHPDILKKAQKEVDETVGQAQISVQHLAELPYIDAILKESLRMMPTAPGFTVTPKKAETLGGKWLLNAGQPINVLLPACLRDRSIFGPNADEFSPGRMLAENFSKLPPNSWKPFGNGERSCIGRAFAWQEAQLVVAMILQNFDLVPDDPSYTLRIKETLTIKPDGFRVRATLRHRQTATGLFQHTLSARNDTSLASSSAHFIKKSEDQAPAGGRPICFFYGSNSGTCKALAHRLASDLMPYGFTDQKLAVLDTAVDNLPRDQPVIILTTTYDGQPTDDAKKFVAWLESGKVPALQGISYAVFGCGHHDWTQTFYRIPTLIDELMHKAGATRLAPRGTANAAVSDLFSDLEAWEETSLLPALRETFLLSSSSDLEPLNLHQLQISLSKPRRIDLHKDLMEARVTTVRILTNPDTPEKRHIEFRFQGDTTLRPGDHVNVLPVNPPSTVLRVLAQFNLAPDYSITINSFNTLGLPQATPVSASELFSAYVELSQPATRNNLRILAATAQSDEDKQELIHLQDSYDSLVRDKRVSVLDLLEQFPSVSLPIAAFISMLPALRLRTYSLSLAPSFKPSHGSLTFSVVNEPARNGNRRYLGVGSNYLASLTPGSILYLSPRPAKEAFHLPVDQSRIPIIMICAGSGLAPFLSFIQDRMIWQQQDKPLARALLFFGCGGRFLDDLYHEELSEFEAAGVVDVRRAYSKVLDYDMARGCKYVQDRLVAEANAIRHLWAQDATIYVCGSADMAKGVEGVLEKLLGMLPRERYVTEIYQMQTRDNVSEWLI",only 7-hydroxy tetradecanoic acid,,5-dodecanol,++ (++ 0.1 million < RA < 1 million)
